Test results published in PMC7948415.

Target: alternative C3 convertase, C3bBb (human) (UniProt P01024)

B1: SG7.AF (natural protein)
chain: ARKHVQELLKTFRRIDFDETRKSVYLQSAKFGVQSQLREPLTKKVLNYWDDVKLSKTCLDRMVTKVNDVKETFYAGFSYACESHNQYSVDCLEAAKPSYLTALGEIRGETEKCLTTRLK
B1 showed an IC50 of inhibition of AP-mediated hemolysis of rabbit erythrocytes, properdin-depleted serum against normal human serum of 6 fold.
